Experimental data published in PMC8528956 (Frontiers in Immunology, 2021).

B1: HC19 IgG (humanized constant domains), RBS-directed (antibody, V domains shown)
VH: QVQLKESGPGLVAPSQSLSITCTVSGFLLISNGVHWVRQPPGKGLEWLGVIWAGGNTNYNSALMSRVSISKDNSKSQVFLKMKSLQTDDTAMYYCARDFYDYDVFYYAMDYWGQGTSVTVSS
VL: QAVVTQESALTTSPGETVTLTCRSSTGAVTTSNYANWVQEKPDHLFTGLIGGTNNRAPGVPARFSGSLIGDKAALTITGAQTEDEAIYFCALWYSNHWVFGGGTKLTVL
notes: source: 293F suspension cells, transient, purified from supernatants (Protein G); copies: 2 + 2
B2: HC45 IgG (humanized constant domains), directed to the vestigial esterase domain (antibody, V domains shown)
VH: QVQLQQPGAELVRPGASVKLSCKASGYTLTTYWMNWFKQRPDQGLEWIGRIDPYDSETHYNQKFKDKAILTVDRSSSTAYMQLSSLTSEDSAVYYCTRFLQITTIIYGMDYWGQGTSVTVSS
VL: DVVMTQTPLSLPVSLGDQASISCRSSQTLVHSNGNTYLHWYLQKPGQSPKLLIYKVSNRFSGVPDRFSGSGSGTDFTLKISRVEAEDLGVYFCSQNTHVPYTFGGGTKLEIK
notes: as for B1
B3: FI6 IgG, stem-directed (antibody, V domains shown)
VH: QVQLVESGGGVVQPGRSLRLSCAASGFTFSTYAMHWVRQAPGKGLEWVAVISYDANYKYYADSVKGRFTISRDNSKNTLYLQMNSLRAEDTAVYYCAKDSQLRSLLYFEWLSQGYFDYWGQGTLVTVSS
VL: not shown
notes: as for B1
B4: 8H10 IgG (humanized constant domains), directed to the HA trimer interface (antibody, V domains shown)
VH: EVQLQESGEGLVKPGGSLKLSCAASGFTFSNYDMSWVRQTPEKRLEWVAYISSGGDYIYYADTVKGRFTISRDNARNTLYLQMSSLKSEDTAMYYCTRNYYYGSLPVWFAYWGQGTLVTVSG
VL: QAVVTQESALTTSPGETVTLTCRSSTGAVTTSNYANWVQEKPDHLFTGLIGGTNNRAPGVPARFSGSLIGDKAALTITGAQTEDEAIYFCALWYSNHSWVFGGGTKLTVL
notes: as for B1

Molecular target: wild-type H3 A/Hong Kong/1/1968 hemagglutinin, recombinant full-length soluble ectodomain (Influenza A virus A/Hong Kong/1/1968 …, UniProt Q91MA7)
Test: ELISA
Details: both partners purified

Row | Binder | binding result
1 | B1 | binds
2 | B2 | binds
3 | B3 | binds
4 | B4 | binds
